Numbered stars: 1 amine (or outer) side, 2 acyl side, 3 side chain; on linkers, the order of the positions; unused ones are H or OH. Bridge positions count the residues as written; N and C are the ends. Side chains are listed from the residue outwards. Ends that are not written are not given here. * marks the point of attachment. C20 diacid = O=C(O)CCCCCCCCCCCCCCCCCCC(=O)*; γGlu = O=C(O)[C@H](CCC(=O)[*:2])N[*:1]
T1: human amylin receptor (amylin 3(a) receptor: human calcitonin receptor coexpressed with RAMP-3) (human, UniProt P30988 25-474; O60896 24-148)
T1 sequence (looked up) 1: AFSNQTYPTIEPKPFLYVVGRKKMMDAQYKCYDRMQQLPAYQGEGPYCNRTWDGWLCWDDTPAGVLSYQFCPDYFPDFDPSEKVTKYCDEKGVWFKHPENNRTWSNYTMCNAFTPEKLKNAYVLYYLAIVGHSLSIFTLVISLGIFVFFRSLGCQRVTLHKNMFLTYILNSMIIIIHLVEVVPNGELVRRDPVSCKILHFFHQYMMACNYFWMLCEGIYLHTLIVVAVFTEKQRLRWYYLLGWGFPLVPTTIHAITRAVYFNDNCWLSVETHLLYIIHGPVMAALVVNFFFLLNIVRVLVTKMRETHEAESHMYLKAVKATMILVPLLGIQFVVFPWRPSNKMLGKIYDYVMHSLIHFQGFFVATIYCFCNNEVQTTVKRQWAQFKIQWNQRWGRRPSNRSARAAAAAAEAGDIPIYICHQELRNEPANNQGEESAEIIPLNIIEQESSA
T1 sequence (looked up) 2: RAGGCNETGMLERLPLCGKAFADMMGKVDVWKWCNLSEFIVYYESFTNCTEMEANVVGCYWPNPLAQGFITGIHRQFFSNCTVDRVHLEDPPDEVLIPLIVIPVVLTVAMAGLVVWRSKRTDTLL

T2: human calcitonin receptor (human, UniProt P30988 25-474)
T2 sequence (looked up): T1 sequence (looked up) 1

B1: N^ε1-[(4S)-4-carboxy-4-[[(4S)-4-carboxy-4-(19-carboxynonadecanoylamino)butanoyl]amino]butanoyl]-[Glu14,Arg17,Pro21,Pro27,Arg35]-h-amylin (peptide)
peptide: K([γGlu-γGlu-C20 diacid])CNTATCATQRLAEFLRHSSPNFGAIPSSTNVGSRTY-NH2
modifications: disulfide 2-7; N-terminus assumed
SMILES: CC[C@H](C)[C@H](NC(=O)[C@H](C)NC(=O)CNC(=O)[C@H](Cc1ccccc1)NC(=O)[C@H](CC(N)=O)NC(=O)[C@@H]1CCCN1C(=O)[C@H](CO)NC(=O)[C@H](CO)NC(=O)[C@H](Cc1c[nH]cn1)NC(=O)[C@H](CCCNC(=N)N)NC(=O)[C@H](CC(C)C)NC(=O)[C@H](Cc1ccccc1)NC(=O)[C@H](CCC(=O)O)NC(=O)[C@H](C)NC(=O)[C@H](CC(C)C)NC(=O)[C@H](CCCNC(=N)N)NC(=O)[C@H](CCC(N)=O)NC(=O)[C@@H](NC(=O)[C@H](C)NC(=O)[C@@H]1CSSC[C@H](NC(=O)[C@@H](N)CCCCNC(=O)CC[C@H](NC(=O)CC[C@H](NC(=O)CCCCCCCCCCCCCCCCCCC(=O)O)C(=O)O)C(=O)O)C(=O)N[C@@H](CC(N)=O)C(=O)N[C@@H]([C@@H](C)O)C(=O)N[C@@H](C)C(=O)N[C@@H]([C@@H](C)O)C(=O)N1)[C@@H](C)O)C(=O)N1CCC[C@H]1C(=O)N[C@@H](CO)C(=O)N[C@@H](CO)C(=O)N[C@H](C(=O)N[C@@H](CC(N)=O)C(=O)N[C@H](C(=O)NCC(=O)N[C@@H](CO)C(=O)N[C@@H](CCCNC(=N)N)C(=O)N[C@H](C(=O)N[C@@H](Cc1ccc(O)cc1)C(N)=O)[C@@H](C)O)C(C)C)[C@@H](C)O
notes: also called compound 89
B2: N^ε1-[(4S)-4-carboxy-4-[[(4S)-4-carboxy-4-(19-carboxynonadecanoylamino)butanoyl]amino]butanoyl]-[His14,Arg17,Pro21,Pro27]-h-amylin (peptide)
peptide: K([γGlu-γGlu-C20 diacid])CNTATCATQRLAHFLRHSSPNFGAIPSSTNVGSNTY-NH2
modifications: disulfide 2-7; N-terminus assumed
SMILES: CC[C@H](C)[C@H](NC(=O)[C@H](C)NC(=O)CNC(=O)[C@H](Cc1ccccc1)NC(=O)[C@H](CC(N)=O)NC(=O)[C@@H]1CCCN1C(=O)[C@H](CO)NC(=O)[C@H](CO)NC(=O)[C@H](Cc1c[nH]cn1)NC(=O)[C@H](CCCNC(=N)N)NC(=O)[C@H](CC(C)C)NC(=O)[C@H](Cc1ccccc1)NC(=O)[C@H](Cc1c[nH]cn1)NC(=O)[C@H](C)NC(=O)[C@H](CC(C)C)NC(=O)[C@H](CCCNC(=N)N)NC(=O)[C@H](CCC(N)=O)NC(=O)[C@@H](NC(=O)[C@H](C)NC(=O)[C@@H]1CSSC[C@H](NC(=O)[C@@H](N)CCCCNC(=O)CC[C@H](NC(=O)CC[C@H](NC(=O)CCCCCCCCCCCCCCCCCCC(=O)O)C(=O)O)C(=O)O)C(=O)N[C@@H](CC(N)=O)C(=O)N[C@@H]([C@@H](C)O)C(=O)N[C@@H](C)C(=O)N[C@@H]([C@@H](C)O)C(=O)N1)[C@@H](C)O)C(=O)N1CCC[C@H]1C(=O)N[C@@H](CO)C(=O)N[C@@H](CO)C(=O)N[C@H](C(=O)N[C@@H](CC(N)=O)C(=O)N[C@H](C(=O)NCC(=O)N[C@@H](CO)C(=O)N[C@@H](CC(N)=O)C(=O)N[C@H](C(=O)N[C@@H](Cc1ccc(O)cc1)C(N)=O)[C@@H](C)O)C(C)C)[C@@H](C)O
notes: also called compound 92
B3: N^ε1-[(4S)-4-carboxy-4-[[(4S)-4-carboxy-4-(19-carboxynonadecanoylamino)butanoyl]amino]butanoyl]-[Glu14,Arg17,Pro21,Pro27,His34,Glu35]-h-amylin (peptide)
peptide: K([γGlu-γGlu-C20 diacid])CNTATCATQRLAEFLRHSSPNFGAIPSSTNVGHETY-NH2
modifications: disulfide 2-7; N-terminus assumed
SMILES: CC[C@H](C)[C@H](NC(=O)[C@H](C)NC(=O)CNC(=O)[C@H](Cc1ccccc1)NC(=O)[C@H](CC(N)=O)NC(=O)[C@@H]1CCCN1C(=O)[C@H](CO)NC(=O)[C@H](CO)NC(=O)[C@H](Cc1c[nH]cn1)NC(=O)[C@H](CCCNC(=N)N)NC(=O)[C@H](CC(C)C)NC(=O)[C@H](Cc1ccccc1)NC(=O)[C@H](CCC(=O)O)NC(=O)[C@H](C)NC(=O)[C@H](CC(C)C)NC(=O)[C@H](CCCNC(=N)N)NC(=O)[C@H](CCC(N)=O)NC(=O)[C@@H](NC(=O)[C@H](C)NC(=O)[C@@H]1CSSC[C@H](NC(=O)[C@@H](N)CCCCNC(=O)CC[C@H](NC(=O)CC[C@H](NC(=O)CCCCCCCCCCCCCCCCCCC(=O)O)C(=O)O)C(=O)O)C(=O)N[C@@H](CC(N)=O)C(=O)N[C@@H]([C@@H](C)O)C(=O)N[C@@H](C)C(=O)N[C@@H]([C@@H](C)O)C(=O)N1)[C@@H](C)O)C(=O)N1CCC[C@H]1C(=O)N[C@@H](CO)C(=O)N[C@@H](CO)C(=O)N[C@H](C(=O)N[C@@H](CC(N)=O)C(=O)N[C@H](C(=O)NCC(=O)N[C@@H](Cc1c[nH]cn1)C(=O)N[C@@H](CCC(=O)O)C(=O)N[C@H](C(=O)N[C@@H](Cc1ccc(O)cc1)C(N)=O)[C@@H](C)O)C(C)C)[C@@H](C)O
B4: N^ε1-[(4S)-4-carboxy-4-[[(4S)-4-carboxy-4-(19-carboxynonadecanoylamino)butanoyl]amino]butanoyl]-[Glu14,Arg17,Pro21,Pro27,Pro34,His35]-h-amylin (peptide)
peptide: K([γGlu-γGlu-C20 diacid])CNTATCATQRLAEFLRHSSPNFGAIPSSTNVGPHTY-NH2
modifications: disulfide 2-7 (inferred)
B5: N^ε1-[(4S)-4-carboxy-4-[[(4S)-4-carboxy-4-(19-carboxynonadecanoylamino)butanoyl]amino]butanoyl]-[Glu14,Arg17,Pro21,Pro27,Pro34,Arg35]-h-amylin (peptide)
peptide: K([γGlu-γGlu-C20 diacid])CNTATCATQRLAEFLRHSSPNFGAIPSSTNVGPRTY-NH2
modifications: disulfide 2-7; N-terminus assumed
SMILES: CC[C@H](C)[C@H](NC(=O)[C@H](C)NC(=O)CNC(=O)[C@H](Cc1ccccc1)NC(=O)[C@H](CC(N)=O)NC(=O)[C@@H]1CCCN1C(=O)[C@H](CO)NC(=O)[C@H](CO)NC(=O)[C@H](Cc1c[nH]cn1)NC(=O)[C@H](CCCNC(=N)N)NC(=O)[C@H](CC(C)C)NC(=O)[C@H](Cc1ccccc1)NC(=O)[C@H](CCC(=O)O)NC(=O)[C@H](C)NC(=O)[C@H](CC(C)C)NC(=O)[C@H](CCCNC(=N)N)NC(=O)[C@H](CCC(N)=O)NC(=O)[C@@H](NC(=O)[C@H](C)NC(=O)[C@@H]1CSSC[C@H](NC(=O)[C@@H](N)CCCCNC(=O)CC[C@H](NC(=O)CC[C@H](NC(=O)CCCCCCCCCCCCCCCCCCC(=O)O)C(=O)O)C(=O)O)C(=O)N[C@@H](CC(N)=O)C(=O)N[C@@H]([C@@H](C)O)C(=O)N[C@@H](C)C(=O)N[C@@H]([C@@H](C)O)C(=O)N1)[C@@H](C)O)C(=O)N1CCC[C@H]1C(=O)N[C@@H](CO)C(=O)N[C@@H](CO)C(=O)N[C@H](C(=O)N[C@@H](CC(N)=O)C(=O)N[C@H](C(=O)NCC(=O)N1CCC[C@H]1C(=O)N[C@@H](CCCNC(=N)N)C(=O)N[C@H](C(=O)N[C@@H](Cc1ccc(O)cc1)C(N)=O)[C@@H](C)O)C(C)C)[C@@H](C)O
notes: also called compound 110

The binders below were run against T1, human amylin receptor (amylin 3(a) …) (assay: cell-based or functional assay).

Row | Binder | hAmylin-R funct. EC50 (pM)
1 | B1 | 404
2 | B2 | 85
3 | B3 | 445
4 | B4 | 172
5 | B5 | 278

The binders below were run against T2, human calcitonin receptor (assay: cell-based or functional assay).

Row | Binder | hCTR funct. EC50 (pM) | Ratio hCT/hAmylin funct.
6 | B1 | 11200 | –
7 | B2 | 2380 | 28
8 | B3 | 7050 | 15.8
9 | B4 | 2830 | 16.4
10 | B5 | 8160 | 29.3
